Values of other authors, collected in patent US20260085103A1, “LONG-ACTING INSULIN COMPOUND” (CHENGDU AODA BIOTECHNOLOGY CO., LTD, priority 2022, published 2026).

How the values were obtained:
[1] = background statement, subcutaneous injection
[2] = after addition of two arginines at the end of the B chain (changed from 5.4)

insulin degludec
duration of action [1]: up to 42 hours
half-life [1]: 24 h

insulin glargine
isoelectric point [2]: 6.7
duration of action [1]: 20 to 24 h
half-life [1]: 12 h
